Earlier results as cited in article PMC3332193.
pKd: −log10 of the molar value.

Biological target: EGFR (Homo sapiens) (UniProt P00533)

For EGF (from UniProt P01133), the pKd is given as > 7.92.
